Reference: paper PMC5620058, “IL-12p35 induces expansion of IL-10 and IL-35-expressing regulatory B cells and ameliorates autoimmune disease” (Nature Communications, 2017)

Target: the molecule itself
Assay: AUC; sedimentation equilibrium, native conditions, non-reducing; peak fraction of Superose-6 further purified by Centricon filtration

B1: mouse recombinant IL-12p35 (rIL-12p35; HBM-p35-Flag-His) (natural protein, UniProt P43431 23-215, looked up)
chain: RVIPVSGPARCLSQSRNLLKTTDDMVKTAREKLKHYSCTAEDIDHEDITRDQTSTLKTCLPLELHKNESCLATRETSSTTRGSCLPPQKTSLMMTLCLGSIYEDLKMYQTEFQAINAALQNHNHQQIILDKGMLVAIDELMQSLNHNGETLRQKPPVGEADPYRVKMKLCILLHAFSTRVVTINRVMGYLSSA
notes: IL-12p35 (Il12a), mouse; cDNA amplified with the printed primers and cloned behind the honeybee melittin (HBM) secretion signal of pMIB; The same construct was obtained as a monomer (~27 kDa, FPLC fractions 29-30) and as a p35−p35 homodimer (~56-57 kDa, fractions 20-21); also called p35−p35; source: purified (Ni-NTA, Centricon filtration, Sephacryl S-200 and Superose-6 FPLC)
  stoichiometry N: 2
